The record followed here is patent publication US20060251658A1 (Sanofi, published 2006).

This assay addresses Recombinant human TGFβ1 (human, UniProt P01137 279-390). The assay can be described thus: cell-based or functional assay.

Sequence of Recombinant human TGFβ1 (P01137 279-390 limits assumed): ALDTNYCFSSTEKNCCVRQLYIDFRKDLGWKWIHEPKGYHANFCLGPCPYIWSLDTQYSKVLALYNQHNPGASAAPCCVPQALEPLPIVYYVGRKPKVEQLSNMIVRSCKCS

B1: 1D11.16 murine pan-specific anti-TGFβ monoclonal antibody (antibody, from another filing, V domains shown)
VH: QVQLQQSGPELVRPGASVKLSCKASGYIFITYWMNWVKQRPGQGLEWIGQIFPASGSTNYNEMFEGKATLTVDTSSSTAYMQLSSLTSEDSAVYYCARGDGNYALDAMDYWGQGTSVTVSS
VL: DIVLTQSPASLAVSLGQRATISCRASESVDSYGNSFMHWYQQKSGQPPKLLIYLASNLESGVPARFSGSGSRTDFTLTIDPVEADDAATYYCQQNNEDPLTFGAGTKLEIK
As for B1, the % neutralisation at 91 pM antibody, MLEC proliferation assay came out at 12%.

B2: PET1074B9 germlined IgG4 (antibody, V domains shown)
VH: QVQLVQSGAEVKKPGSSVKVSCKASGYTFSSNVISWVRQAPGQGLEWMGGVIPIVDIANYAQRFKGRVTITADESTSTTYMELSSLRSEDTAVYYCALPRAFVLDAMDYWGQGTLVTVSS
VL: ETVLTQSPGTLSLSPGERATLSCRASQSLGSSYLAWYQQKPGQAPRLLIYGASSRAPGIPDRFSGSGSGTDFTLTISRLEPEDFAVYYCQQYADSPITFGQGTRLEIK
As for B2, the “Geometric Mean IC50, MLEC proliferation assay (n = 6; full dose response curve not obtained)” value was less than 1 nM.
